Data published in US20120172293A1 (Takeda / Millennium, published 2012).
Non-standard residues stand in square brackets, D forms with d. No end group written: not given here. Phe(4-NH2) = Nc1ccc(C[C@H](N)C(=O)O)cc1; Phe(4-Me) = Cc1ccc(C[C@H](N)C(=O)O)cc1; 1Nal = N[C@@H](Cc1cccc2ccccc12)C(=O)O; 2Nal = N[C@@H](Cc1ccc2ccccc2c1)C(=O)O; NMeF = CN[C@@H](Cc1ccccc1)C(=O)O; 4Pal = N[C@@H](Cc1ccncc1)C(=O)O; Cha = N[C@@H](CC1CCCCC1)C(=O)O; Cit = NC(=O)NCCC[C@H](N)C(=O)O; 4Amb = NCc1ccc(C(=O)O)cc1; hSer = N[C@@H](CCO)C(=O)O; Iva = CC[C@](C)(N)C(=O)O; Ac3c = NC1(C(=O)O)CC1; Aib = CC(C)(N)C(=O)O

T1: human Y2 receptor (human, UniProt P49146 1-381)
T1 sequence (looked up): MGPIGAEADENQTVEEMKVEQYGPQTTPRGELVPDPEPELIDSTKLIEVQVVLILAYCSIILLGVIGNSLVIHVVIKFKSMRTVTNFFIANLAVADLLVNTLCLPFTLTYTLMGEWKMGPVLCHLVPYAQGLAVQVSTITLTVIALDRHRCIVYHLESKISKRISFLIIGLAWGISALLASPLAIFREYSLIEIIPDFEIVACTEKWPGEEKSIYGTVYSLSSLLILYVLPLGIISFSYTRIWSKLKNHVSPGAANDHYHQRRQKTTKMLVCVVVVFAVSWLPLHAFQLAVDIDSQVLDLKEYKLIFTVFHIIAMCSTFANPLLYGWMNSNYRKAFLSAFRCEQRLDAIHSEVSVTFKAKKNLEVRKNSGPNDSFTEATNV


Experiments:
human Y2 receptor [1] = molecular target: T1, human Y2 receptor; assay: cell-based or functional assay
human Y2 receptor [2] = molecular target: T1, human Y2 receptor; assay: RBA: [125I]-PYY displacement, hY2R/CHO membranes
Procedure, shortened: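 Bound radioligand was collected by filtration on PEI-treated GF/C filters, washed with Tris/MgCl₂/NaCl/CHAPS buffer pH 7.4, and counted by scintillation; IC₅₀ values were calculated.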

Row | Binder | GBA EC50 Ratio (vs PYY(3-36)), [35S]GTPγS (human Y2 receptor [1]) [ratio] | IC50 Ratio (vs PYY(3-36)) (human Y2 receptor [2]) [ratio]
1 | [4Amb]RAYINLITRQR[Phe(4-Me)]-NH2 (N-terminus assumed; SMILES CC[C@H](C)[C@H](NC(=O)[C@H](Cc1ccc(O)cc1)NC(=O)[C@H](C)NC(=O)[C@H](CCCNC(=N)N)NC(=O)c1ccc(CN)cc1)C(=O)N[C@@H](CC(N)=O)C(=O)N[C@@H](CC(C)C)C(=O)N[C@H](C(=O)N[C@H](C(=O)N[C@@H](CCCNC(=N)N)C(=O)N[C@@H](CCC(N)=O)C(=O)N[C@@H](CCCNC(=N)N)C(=O)N[C@@H](Cc1ccc(C)cc1)C(N)=O)[C@@H](C)O)[C@@H](C)CC, also called compound No. 15) [4-Aminomethylbenzoyl-[Ala26, Ile28,31, Phe(4Me)36]-PYY(25-36)] | 5.5 | 8.7
2 | [4Amb]RAYINLITRQR[NMeF]-NH2 (N-terminus assumed; SMILES CC[C@H](C)[C@H](NC(=O)[C@H](Cc1ccc(O)cc1)NC(=O)[C@H](C)NC(=O)[C@H](CCCNC(=N)N)NC(=O)c1ccc(CN)cc1)C(=O)N[C@@H](CC(N)=O)C(=O)N[C@@H](CC(C)C)C(=O)N[C@H](C(=O)N[C@H](C(=O)N[C@@H](CCCNC(=N)N)C(=O)N[C@@H](CCC(N)=O)C(=O)N[C@@H](CCCNC(=N)N)C(=O)N(C)[C@@H](Cc1ccccc1)C(N)=O)[C@@H](C)O)[C@@H](C)CC, also called compound No. 16) [4-Aminomethylbenzoyl-[Ala26, Ile28,31, NMePhe36]-PYY(25-36)] | 45 | 120
3 | Ac-S[dP]RH[Cha][Cha]NL[Aib]TRQRY-NH2 (SMILES CC(=O)N[C@@H](CO)C(=O)N1CCC[C@@H]1C(=O)N[C@@H](CCCNC(=N)N)C(=O)N[C@@H](Cc1c[nH]cn1)C(=O)N[C@@H](CC1CCCCC1)C(=O)N[C@@H](CC1CCCCC1)C(=O)N[C@@H](CC(N)=O)C(=O)N[C@@H](CC(C)C)C(=O)NC(C)(C)C(=O)N[C@H](C(=O)N[C@@H](CCCNC(=N)N)C(=O)N[C@@H](CCC(N)=O)C(=O)N[C@@H](CCCNC(=N)N)C(=O)N[C@@H](Cc1ccc(O)cc1)C(N)=O)[C@@H](C)O, also called compound No. 142) [Ac-[D-Pro24, Cha27,28, Aib31]-PYY(23-36)] | 1.1 | 3.2
4 | Ac-S[dP]RH[Cha][Cha]NL[Aib]TRQRF-NH2 (SMILES CC(=O)N[C@@H](CO)C(=O)N1CCC[C@@H]1C(=O)N[C@@H](CCCNC(=N)N)C(=O)N[C@@H](Cc1c[nH]cn1)C(=O)N[C@@H](CC1CCCCC1)C(=O)N[C@@H](CC1CCCCC1)C(=O)N[C@@H](CC(N)=O)C(=O)N[C@@H](CC(C)C)C(=O)NC(C)(C)C(=O)N[C@H](C(=O)N[C@@H](CCCNC(=N)N)C(=O)N[C@@H](CCC(N)=O)C(=O)N[C@@H](CCCNC(=N)N)C(=O)N[C@@H](Cc1ccccc1)C(N)=O)[C@@H](C)O, also called compound No. 143) [Ac-[D-Pro24, Cha27,28, Aib31, Phe36]-PYY(23-36)] | 0.85 | 2.9
5 | Ac-S[dP]RH[Cha][Ac3c]NL[Aib]TRQR[Cha]-NH2 (SMILES CC(=O)N[C@@H](CO)C(=O)N1CCC[C@@H]1C(=O)N[C@@H](CCCNC(=N)N)C(=O)N[C@@H](Cc1c[nH]cn1)C(=O)N[C@@H](CC1CCCCC1)C(=O)NC1(C(=O)N[C@@H](CC(N)=O)C(=O)N[C@@H](CC(C)C)C(=O)NC(C)(C)C(=O)N[C@H](C(=O)N[C@@H](CCCNC(=N)N)C(=O)N[C@@H](CCC(N)=O)C(=O)N[C@@H](CCCNC(=N)N)C(=O)N[C@@H](CC2CCCCC2)C(N)=O)[C@@H](C)O)CC1, also called compound No. 145) [Ac-[D-Pro24, Cha27,36, Acpc28, Aib31]-PYY(23-36)] | 17 | 160
6 | Ac-R[dY]AS[dP]RH[Cha][Cha]NL[Aib]TRQR[Cha]-NH2 (SMILES CC(=O)N[C@@H](CCCNC(=N)N)C(=O)N[C@H](Cc1ccc(O)cc1)C(=O)N[C@@H](C)C(=O)N[C@@H](CO)C(=O)N1CCC[C@@H]1C(=O)N[C@@H](CCCNC(=N)N)C(=O)N[C@@H](Cc1c[nH]cn1)C(=O)N[C@@H](CC1CCCCC1)C(=O)N[C@@H](CC1CCCCC1)C(=O)N[C@@H](CC(N)=O)C(=O)N[C@@H](CC(C)C)C(=O)NC(C)(C)C(=O)N[C@H](C(=O)N[C@@H](CCCNC(=N)N)C(=O)N[C@@H](CCC(N)=O)C(=O)N[C@@H](CCCNC(=N)N)C(=O)N[C@@H](CC1CCCCC1)C(N)=O)[C@@H](C)O, also called compound No. 164) [Ac-[Arg20, D-Tyr21, D-Pro24, Cha27,28,36, Aib31]-PYY(20-36)] | 0.66 | 0.44
7 | Ac-S[dP]RH[Iva][Cha]NL[Aib]TRQR[Cha]-NH2 (SMILES CC[C@](C)(NC(=O)[C@H](Cc1c[nH]cn1)NC(=O)[C@H](CCCNC(=N)N)NC(=O)[C@H]1CCCN1C(=O)[C@H](CO)NC(C)=O)C(=O)N[C@@H](CC1CCCCC1)C(=O)N[C@@H](CC(N)=O)C(=O)N[C@@H](CC(C)C)C(=O)NC(C)(C)C(=O)N[C@H](C(=O)N[C@@H](CCCNC(=N)N)C(=O)N[C@@H](CCC(N)=O)C(=O)N[C@@H](CCCNC(=N)N)C(=O)N[C@@H](CC1CCCCC1)C(N)=O)[C@@H](C)O, also called compound No. 175) [Ac-[D-Pro24, Iva27, Cha28,36, Aib31]-PYY(23-36)] | 2.6 | 6.4
8 | Ac-E[dP]R[4Pal][Cha]YNK[Aib]TRQR[Cha]-NH2 (SMILES CC(=O)N[C@@H](CCC(=O)O)C(=O)N1CCC[C@@H]1C(=O)N[C@@H](CCCNC(=N)N)C(=O)N[C@@H](Cc1ccncc1)C(=O)N[C@@H](CC1CCCCC1)C(=O)N[C@@H](Cc1ccc(O)cc1)C(=O)N[C@@H](CC(N)=O)C(=O)N[C@@H](CCCCN)C(=O)NC(C)(C)C(=O)N[C@H](C(=O)N[C@@H](CCCNC(=N)N)C(=O)N[C@@H](CCC(N)=O)C(=O)N[C@@H](CCCNC(=N)N)C(=O)N[C@@H](CC1CCCCC1)C(N)=O)[C@@H](C)O, also called compound No. 139) [Ac-[Glu23, D-Pro24, Pya(4)26, Cha27,36, Tyr28, Lys30, Aib31]-PYY(23-36)] | 1.2 | 2.2
9 | Ac-S[dP]RH[Cha][hSer]NL[Aib]TRQR[Cha]-NH2 (SMILES CC(=O)N[C@@H](CO)C(=O)N1CCC[C@@H]1C(=O)N[C@@H](CCCNC(=N)N)C(=O)N[C@@H](Cc1c[nH]cn1)C(=O)N[C@@H](CC1CCCCC1)C(=O)N[C@@H](CCO)C(=O)N[C@@H](CC(N)=O)C(=O)N[C@@H](CC(C)C)C(=O)NC(C)(C)C(=O)N[C@H](C(=O)N[C@@H](CCCNC(=N)N)C(=O)N[C@@H](CCC(N)=O)C(=O)N[C@@H](CCCNC(=N)N)C(=O)N[C@@H](CC1CCCCC1)C(N)=O)[C@@H](C)O, also called compound No. 144) [Ac-[D-Pro24, Cha27,36, Hse28, Aib31]-PYY(23-36)] | 4.5 | 22
10 | [4Amb]RAYINLITRQR[Phe(4-NH2)]-NH2 (N-terminus assumed; SMILES CC[C@H](C)[C@H](NC(=O)[C@H](Cc1ccc(O)cc1)NC(=O)[C@H](C)NC(=O)[C@H](CCCNC(=N)N)NC(=O)c1ccc(CN)cc1)C(=O)N[C@@H](CC(N)=O)C(=O)N[C@@H](CC(C)C)C(=O)N[C@H](C(=O)N[C@H](C(=O)N[C@@H](CCCNC(=N)N)C(=O)N[C@@H](CCC(N)=O)C(=O)N[C@@H](CCCNC(=N)N)C(=O)N[C@@H](Cc1ccc(N)cc1)C(N)=O)[C@@H](C)O)[C@@H](C)CC, also called compound No. 12) [4-Aminomethylbenzoyl-[Ala26, Ile28,31, Phe(4NH2)36]-PYY(25-36)] | 5 | 12
11 | [4Amb]RAYINLITRQR[2Nal]-NH2 (N-terminus assumed; SMILES CC[C@H](C)[C@H](NC(=O)[C@H](Cc1ccc(O)cc1)NC(=O)[C@H](C)NC(=O)[C@H](CCCNC(=N)N)NC(=O)c1ccc(CN)cc1)C(=O)N[C@@H](CC(N)=O)C(=O)N[C@@H](CC(C)C)C(=O)N[C@H](C(=O)N[C@H](C(=O)N[C@@H](CCCNC(=N)N)C(=O)N[C@@H](CCC(N)=O)C(=O)N[C@@H](CCCNC(=N)N)C(=O)N[C@@H](Cc1ccc2ccccc2c1)C(N)=O)[C@@H](C)O)[C@@H](C)CC, also called compound No. 14) [4-Aminomethylbenzoyl-[Ala26, Ile28,31, Nal(2)36]-PYY(25-36)] | 6.9 | 14
12 | Ac-S[dP]RH[Cit][Cha]NL[Aib]TRQR[Cha]-NH2 (SMILES CC(=O)N[C@@H](CO)C(=O)N1CCC[C@@H]1C(=O)N[C@@H](CCCNC(=N)N)C(=O)N[C@@H](Cc1c[nH]cn1)C(=O)N[C@@H](CCCNC(N)=O)C(=O)N[C@@H](CC1CCCCC1)C(=O)N[C@@H](CC(N)=O)C(=O)N[C@@H](CC(C)C)C(=O)NC(C)(C)C(=O)N[C@H](C(=O)N[C@@H](CCCNC(=N)N)C(=O)N[C@@H](CCC(N)=O)C(=O)N[C@@H](CCCNC(=N)N)C(=O)N[C@@H](CC1CCCCC1)C(N)=O)[C@@H](C)O, also called compound No. 146) [Ac-[D-Pro24, Cit27, Cha28,36, Aib31]-PYY(23-36)] | 5.6 | 36
13 | [4Amb]RAYINLITRQR[1Nal]-NH2 (N-terminus assumed; SMILES CC[C@H](C)[C@H](NC(=O)[C@H](Cc1ccc(O)cc1)NC(=O)[C@H](C)NC(=O)[C@H](CCCNC(=N)N)NC(=O)c1ccc(CN)cc1)C(=O)N[C@@H](CC(N)=O)C(=O)N[C@@H](CC(C)C)C(=O)N[C@H](C(=O)N[C@H](C(=O)N[C@@H](CCCNC(=N)N)C(=O)N[C@@H](CCC(N)=O)C(=O)N[C@@H](CCCNC(=N)N)C(=O)N[C@@H](Cc1cccc2ccccc12)C(N)=O)[C@@H](C)O)[C@@H](C)CC, also called compound No. 13) [4-Aminomethylbenzoyl-[Ala26, Ile28,31, Nal(1)36]-PYY(25-36)] | 3.6 | 7.6
